# Assay results: the Human Domainome abundance scans (Beltran et al. 2025)
# ± gives the uncertainty stated by the source.
# B1: Dynamin-binding protein, residues 146 to 206; numbered along this chain, Q6XZF7 (parent)
# chain: SMGQARALMGLSAQLDEELDFREGDVITIIGVPEPGWFEGELEGRRGIFPEGFVELLGPLR
# Variants of: B1
# Experiment: abundance fitness (aPCA) (normalised: wild type 0, dead -1); higher = more abundant; growth selection in yeast, the domain comes from the species named
# Conditions: Homo sapiens
row,Variant,abundance fitness
1,SMGQARALMGLSAQLDTELDFREGDVITIIGVPEPGWFEGELEGRRGIFPEGFVELLGPLR,-0.101 ± 0.053
2,SMGQANALMGLSAQLDEELDFREGDVITIIGVPEPGWFEGELEGRRGIFPEGFVELLGPLR,-0.763 ± 0.094
3,SMGQARALMGLSAQLDEELDFREGDVITIIGVPEPGWFEGELEGRRGIFPFGFVELLGPLR,-0.621 ± 0.32
4,SMGQARALMGLSAQLDEELDFREGDRITIIGVPEPGWFEGELEGRRGIFPEGFVELLGPLR,-0.353 ± 0.054
5,SMGQARALMGLSAQLDEELDFREGDNITIIGVPEPGWFEGELEGRRGIFPEGFVELLGPLR,-0.594 ± 0.078
6,SMGQARALMGLSAQLDEELDFREGDTITIIGVPEPGWFEGELEGRRGIFPEGFVELLGPLR,-0.319 ± 0.075
7,SMGQARALMGLSAQLDEELDFREGDWITIIGVPEPGWFEGELEGRRGIFPEGFVELLGPLR,-0.554 ± 0.1
8,SMGQPRALMGLSAQLDEELDFREGDVITIIGVPEPGWFEGELEGRRGIFPEGFVELLGPLR,-0.686 ± 0.11
9,SMGQARALMGLSAQLDEELDFREGDVITIIGVPEPGWFEGELEGRRKIFPEGFVELLGPLR,-0.839 ± 0.45
10,SMGQARALMGLSAQLDEELDTREGDVITIIGVPEPGWFEGELEGRRGIFPEGFVELLGPLR,-0.465 ± 0.11
11,SMGQARALMGLSAQLDEELDEREGDVITIIGVPEPGWFEGELEGRRGIFPEGFVELLGPLR,-0.481 ± 0.17
12,SMGQARALMGLSAQLDEELDFREGDVITIIGVPEPGWFEGELEGWRGIFPEGFVELLGPLR,-0.958 ± 0.25
13,SMGQARALMGLSAQLDEECDFREGDVITIIGVPEPGWFEGELEGRRGIFPEGFVELLGPLR,-0.684 ± 0.12
14,SMGQARALMGLSAQLDEELDFREGDVITIMGVPEPGWFEGELEGRRGIFPEGFVELLGPLR,-0.481 ± 0.27
15,SMGQARALMGLSAQLDEELDFREGDVITILGVPEPGWFEGELEGRRGIFPEGFVELLGPLR,-0.085 ± 0.13
16,SMGQARALMGLSAQLDEELDFREADVITIIGVPEPGWFEGELEGRRGIFPEGFVELLGPLR,-0.551 ± 0.079
17,SMGQARALMGLSAQLDEELDFREYDVITIIGVPEPGWFEGELEGRRGIFPEGFVELLGPLR,-0.729 ± 0.1
18,SMGQARALMGLSAQLDEELDFRENDVITIIGVPEPGWFEGELEGRRGIFPEGFVELLGPLR,-0.253 ± 0.065
19,SMGQARALMGLSAQLDEELDFREHDVITIIGVPEPGWFEGELEGRRGIFPEGFVELLGPLR,-0.679 ± 0.17
20,SMGQARALMGLSAQLDEELDFREGDVITIIGVPEPGWFEGELEGRQGIFPEGFVELLGPLR,-0.571 ± 0.3
21,SMGQARALMGLSAQLDEELDFREGDVETIIGVPEPGWFEGELEGRRGIFPEGFVELLGPLR,-0.773 ± 0.15
22,SMGQARALMGLSAQLDEELDFREGMVITIIGVPEPGWFEGELEGRRGIFPEGFVELLGPLR,-0.724 ± 0.14

row,Variant,abundance fitness
1,SMGQARALMGLSAQLDENLDFREGDVITIIGVPEPGWFEGELEGRRGIFPEGFVELLGPLR,-0.236 ± 0.093
2,SMGQARALMGLSAQLDEELDFREGDVITIIGVPEPQWFEGELEGRRGIFPEGFVELLGPLR,-0.797 ± 0.22
3,SMGQARALMGLSAQLDEELDFREGDVITIIGVPEPGWFEGELEGRRGIFPEGFVELEGPLR,-0.695 ± 0.27
4,SMGQARALMGLSAQLDEELDFREGDVITIIGVPEPGWFEGELEGRRGIFPEGFVELPGPLR,-0.655 ± 0.085
5,SMGQARALMGLSAQLDEELDFREGDVITIIGVPEPGWFEGELEGRRGIFPEGFVELAGPLR,-0.57 ± 0.068
6,SMGQARALMGLSAQLDEELDFREGDVITIIGVPEPGWFEGELEGRRGIFPEGFVELQGPLR,-0.258 ± 0.16
7,SMGQARALMGLSAQLDEELDFREGDVITIIGVPEPGWFEGELEGRRGIFPEGFVELWGPLR,-1.03 ± 0.2
8,SMGQARASMGLSAQLDEELDFREGDVITIIGVPEPGWFEGELEGRRGIFPEGFVELLGPLR,-0.305 ± 0.045
9,SMGQARALMGLSAQLDEELDFREGDVITIIGVPEPGWFEGETEGRRGIFPEGFVELLGPLR,-0.769 ± 0.12
10,SMGQARALMGLSAQLDEELDFREGDVITIIGVPEPGWFEGELEGRRGIFPEGFVERLGPLR,-0.399 ± 0.12
11,CMGQARALMGLSAQLDEELDFREGDVITIIGVPEPGWFEGELEGRRGIFPEGFVELLGPLR,-0.077 ± 0.056
12,PMGQARALMGLSAQLDEELDFREGDVITIIGVPEPGWFEGELEGRRGIFPEGFVELLGPLR,-0.661 ± 0.36
13,YMGQARALMGLSAQLDEELDFREGDVITIIGVPEPGWFEGELEGRRGIFPEGFVELLGPLR,0.064 ± 0.06
14,HMGQARALMGLSAQLDEELDFREGDVITIIGVPEPGWFEGELEGRRGIFPEGFVELLGPLR,-0.104 ± 0.12
15,SMGQARALMGLSAQLDEELDFREGDVITIIGVPEPGWFEGELEGRRGIWPEGFVELLGPLR,-1.1 ± 0.24
16,SMGQARALMLLSAQLDEELDFREGDVITIIGVPEPGWFEGELEGRRGIFPEGFVELLGPLR,-0.436 ± 0.13
17,SMGQARALMRLSAQLDEELDFREGDVITIIGVPEPGWFEGELEGRRGIFPEGFVELLGPLR,-0.014 ± 0.055
18,SMGQARALMGLSAQLDEELDFREGDVITIIWVPEPGWFEGELEGRRGIFPEGFVELLGPLR,-0.955 ± 0.36
19,SVGQARALMGLSAQLDEELDFREGDVITIIGVPEPGWFEGELEGRRGIFPEGFVELLGPLR,-0.277 ± 0.062
20,SMGQARALMGLSAQLDEELDFREGDVITIIGVPEFGWFEGELEGRRGIFPEGFVELLGPLR,-0.717 ± 0.18
21,SMGQARALMGLSAQLDEELDFREGDVITIIGVPECGWFEGELEGRRGIFPEGFVELLGPLR,-0.363 ± 0.09
22,SMGQARALMGLSAQLDEELDFREGDVITIIGVPERGWFEGELEGRRGIFPEGFVELLGPLR,-0.309 ± 0.077

row,Variant,abundance fitness
1,SMGQARALMGLSAQLDEELDFREGDVITIIGVPENGWFEGELEGRRGIFPEGFVELLGPLR,-0.471 ± 0.11
2,SMGQARALMGLSAQLDEELDFREGDVITIIGVPEPGWFSGELEGRRGIFPEGFVELLGPLR,-0.339 ± 0.044
3,SMGQARALMGLSQQLDEELDFREGDVITIIGVPEPGWFEGELEGRRGIFPEGFVELLGPLR,-0.348 ± 0.12
4,SMGQARALMGLSAQLDEELDFREGDVITIIGVPIPGWFEGELEGRRGIFPEGFVELLGPLR,-0.055 ± 0.2
5,SMGQARALMGLSAQLDEELDFREGDVITIIGCPEPGWFEGELEGRRGIFPEGFVELLGPLR,-0.12 ± 0.06
6,SMGQARALMGLSAQLDEELDFREGDVITIIGQPEPGWFEGELEGRRGIFPEGFVELLGPLR,0.189 ± 0.1
7,SMGQARALMGLSAQLDEELDFREGDVITIIGFPEPGWFEGELEGRRGIFPEGFVELLGPLR,-0.446 ± 0.15
8,SMGQARALMGLSAQLDEELDFREGDVITIIGVPEPGWFEGELEGRRGIFPEGFVELLQPLR,-0.013 ± 0.1
9,SMGQARALMGLSAQLDEELDFREGDVITQIGVPEPGWFEGELEGRRGIFPEGFVELLGPLR,-0.082 ± 0.25
10,SMGQARALMGLSAQLDEELDFREGDVITAIGVPEPGWFEGELEGRRGIFPEGFVELLGPLR,-0.665 ± 0.16
11,SMGQARALMGLSAQLDEELDFREGDVITNIGVPEPGWFEGELEGRRGIFPEGFVELLGPLR,-0.461 ± 0.12
12,SMGQARALMGLSAQLDEELDFREGDVITFIGVPEPGWFEGELEGRRGIFPEGFVELLGPLR,-0.924 ± 0.2
13,SMGQARALMGLSAQLDEELDFREGDVITIIGVPEPGWFEGELEGRRGIFPEGYVELLGPLR,0.059 ± 0.091
14,SMGQARALMGLSAQLDEELDFREGDVITIIGVPEPGWFEGELEGRRGIFPEGFVELLGPMR,-0.062 ± 0.12
15,SMGQARALMGLSAQLDEELDFREGDVITIIGVPEPGWFEGELEGRRGIFPEGFVELLGPPR,-0.368 ± 0.19
16,SMGQARALMGLSAQLDEELDFREGDVITIIGVPEPGWFEGELEGRRGIFPEGFVELLGPAR,-0.387 ± 0.26
17,SMGQARALMGLSAQLDEELDFREGDVITIIGVAEPGWFEGELEGRRGIFPEGFVELLGPLR,-0.971 ± 0.3
18,SMGQARALMGLSAQLDEELDFREGDVITIIGVYEPGWFEGELEGRRGIFPEGFVELLGPLR,-0.587 ± 0.14
19,SMGQARALMGLSAQLDEELDFREGDVITIIGVNEPGWFEGELEGRRGIFPEGFVELLGPLR,-1.07 ± 0.24
20,SMGQARALMGLSAQLDEELDFREGDVITIIGVTEPGWFEGELEGRRGIFPEGFVELLGPLR,-0.386 ± 0.16
21,SMGQARALMGLSAQLDEELDFREGDVITIIGVWEPGWFEGELEGRRGIFPEGFVELLGPLR,-0.711 ± 0.19
22,SMGQARALMGLSAQLDEELDFYEGDVITIIGVPEPGWFEGELEGRRGIFPEGFVELLGPLR,-0.352 ± 0.19

row,Variant,abundance fitness
1,SMGQARALMGLSAQLDEELDFREGDVITIIGVPEPGWFEGELEGRRGIFNEGFVELLGPLR,-0.371 ± 0.069
2,SMGQARALMGLSAQLDEELDFREGDVITIIGVPEPGWFEGELEGRRGIFIEGFVELLGPLR,-0.691 ± 0.082
3,SMGQARALMGLSAQLDEELDFREGDVITIIGVPEPGWFEGELEGRRGIFMEGFVELLGPLR,-0.38 ± 0.11
4,SMGQARALMGLSAQLDEELDFREGDVITIIGVPEPGWFEGELEGRRGIFFEGFVELLGPLR,-0.669 ± 0.09
5,SMGQARALMGLSAQLDEELDFREGDVITIIGVPEPGWFEGELEGRRGGFPEGFVELLGPLR,-1.01 ± 0.095
6,SMGQARALMGLSAQLDEELDFREGDVITIIGVPEPGWFEGELEGRRGIFPEGFVELLGPLK,0.47 ± 0.3
7,SMGQARALMGLSAQLDEELDFREGDVITIIGVPEPGWFEGELEGRRGIFPEGFVELLGPLY,-0.148 ± 0.098
8,SMGQARALMGLSAQLDEELDFREGDVITIIGVPEPGWFEGELEGRRGIFPEGFVELLGPLS,-0.017 ± 0.068
9,SMGQARALMGLSAQLDEELDFREGDVITIIGVPEPGWFEGELEGRRGIFPEGFVELLGPLP,0.123 ± 0.22
10,SMGQARALMGLSAQLDEELDFREGDVITIIGVPEPGWFEGELEGRRGIFPEGFVELLGPLG,-0.123 ± 0.096
11,SMGQARALMGLSAQLDEELDFREGDVITIIGVPEPGWQEGELEGRRGIFPEGFVELLGPLR,-1.12 ± 0.29
12,SMGQARALMGQSAQLDEELDFREGDVITIIGVPEPGWFEGELEGRRGIFPEGFVELLGPLR,0.191 ± 0.072
13,SMGQARALMGLSAQLDEELDFREGDVIWIIGVPEPGWFEGELEGRRGIFPEGFVELLGPLR,-0.809 ± 0.38
14,SMGQARALMGLSAQLDEELDFREGDVISIIGVPEPGWFEGELEGRRGIFPEGFVELLGPLR,0.011 ± 0.054
15,SMGQARALMGLSAQLDEELDFREGDVITIIGVPEPGWFEGELEGRRGIFPERFVELLGPLR,0.117 ± 0.18
16,SMGQARALMGLSAQLDEELDFREGDVITIIGVPEPGWFEGELEGRRGIFPELFVELLGPLR,-0.29 ± 0.31
17,SMGQARALMGLSAQLDEELDFREGDVITIIGVPEPGWFEGELEGRRGIFPEYFVELLGPLR,-0.064 ± 0.3
18,SMGQARALMGLSAQLDEELDFREGDVITIIGVPEPGSFEGELEGRRGIFPEGFVELLGPLR,-0.62 ± 0.16
19,SMGQARALMGLSAQLDEELDFREGDVITIIGVPEPGHFEGELEGRRGIFPEGFVELLGPLR,-0.326 ± 0.074
20,SMGQARALMGLSAQLDEELDFREGDVITIIGVPEPGMFEGELEGRRGIFPEGFVELLGPLR,-0.019 ± 0.075
21,SMGQARALMGLSAQLDEELDFREGDVITIIGVPEPGWFEGSLEGRRGIFPEGFVELLGPLR,-0.806 ± 0.25
